PMC9909335, “Structure-guided design of a potent Clostridioides difficile toxin A inhibitor” (Frontiers in Microbiology, 2023)

B1: VHH A26 (A26.8) (VHH)
VHH: QVKLEESGGGLVQAGGSLRLSCAASERTFSRYPVAWFRQAPGAEREFVAVISSTGTSTYYADSVKGRFTISRDNAKVTVYLQMNNLKREDTAVYFCAVNSQRTRLQDPNEYDYWGQGTQVTVSS
B2: VHH A20 (A20.1) (VHH)
VHH: QVQLVESGGGLAQAGGSLRLSCAASGRTFSMDPMAWFRQPPGKEREFVAAGSSTGRTTYYADSVKGRFTISRDNAKNTVYLQMNSLKPEDTAVYYCAAAPYGANWYRDEYAYWGQGTQVTVSS

Assays:
Settings in all cases: both partners purified
[1] = biological target: T1, Clostridioides difficile toxin A (TcdA), full-length (Clostridioides difficile, strain of …, UniProt P16154); test: ELISA
T1 construct: also called full-length TcdA

[2] = biological target: T2, TcdA-A2 fragment (C-terminal CROPs domain fragment of TcdA, aa 2,556–2,710 of TcdA10463) (Clostridioides difficile; paper: …); test: SEC-MALS
T2 construct: source: recombinant (Greco et al., 2006)

[3] = biological target: T2, TcdA-A2 fragment (C-terminal CROPs …); test: SPR

Binder	EC50 [1] [nM]	stoichiometry N [2]	T1/2 (SPR-calculated half-life, 0.693/kd) [3] [min]	koff [3] [s⁻¹]
B1	14.6	1 Ab per Ag (1:1)	0.6	0.025
B2	0.194 ± 0.013	1 Ab per Ag (1:1)	1.8	0.0075
